# Measured values: US20260085105A1 (Amgen, published 2026)
# T1: GPC5 peptide on HLA-A*02:01 (human)
# T1 peptide: KLLEQVNRI
# T2: TRMT1L peptide on HLA-A*02:01 (human)
# T2 peptide: VALEHFVLV
# T3: PTRF peptide on HLA-A*02:01 (human)
# T3 peptide: KLLEKVRKV
# T4: TSC1 peptide on HLA-A*02:01 (human)
# T4 peptide: SLLGHVIRL
# T5: CNOT1 peptide on HLA-A*02:01 (human)
# T5 peptide: KVLGIVVGV
# T6: HNRNPR peptide on HLA-A*02:01 (human)
# T6 peptide: KVWGNVVTV
# T7: ATAD2 peptide on HLA-A*02:01 (human)
# T7 peptide: KILEALQRV
# T8: TP2 peptide on HLA-A*02:01 (human)
# T8 peptide: KILEDVVGV
# T9: MADD peptide on HLA-A*02:01 (human)
# T9 peptide: ILLEHKVVL
# T10: ANO5 peptide on HLA-A*02:01 (human)
# T10 peptide: IVMEHVVFL
# T11: NSD1 peptide on HLA-A*02:01 (human)
# T11 peptide: KVQEQVHKV
# T12: SYNE3 peptide on HLA-A*02:01 (human)
# T12 peptide: KLLDLQVRV
# T13: GRP78 peptide on HLA-A*02:01 (human)
# T13 peptide: KVTHAVVTV
# T14: HERC4 peptide on HLA-A*02:01 (human)
# T14 peptide: KVLEILHRV
# T15: AXIN1 peptide on HLA-A*02:01 (human)
# T15 peptide: ILDEHVQRV
# T16: RG1L peptide on HLA-A*02:01 (human)
# T16 peptide: FLLETVVRV
# T17: HTR5A peptide on HLA-A*02:01 (human)
# T17 peptide: KVLETLVTV
# T18: MIA3 peptide on HLA-A*02:01 (human)
# T18 peptide: KVLDKVFRA
# T19: KIAA1033 peptide on HLA-A*02:01 (human)
# T19 peptide: KVLNKVITV
# T20: PSME2 peptide on HLA-A*02:01 (human)
# T20 peptide: KVLERVNAV
# T21: MAGE-A4 (100% identical in MAGEA8) peptide on HLA-A*02:01 (human)
# T21 peptide: KVLEHVVRV
# T22: VPS13B peptide on HLA-A*02:01 (human)
# T22 peptide: GLMDGSPHFL
# T23: KEAP1 peptide on HLA-A*02:01 (human)
# T23 peptide: GVIDGHIYAV
# T24: COX14 peptide on HLA-A*02:01 (human)
# T24 peptide: TVYGGYLCSV
# T25: OSBPL10 peptide on HLA-A*02:01 (human)
# T25 peptide: SQYSGQLHEV
# T26: ACTB peptide on HLA-A*02:01 (human)
# T26 peptide: DSGDGVTHTV
# T27: STXBP5 peptide on HLA-A*02:01 (human)
# T27 peptide: YTYDEAIHSV
# T28: PGRMC1 peptide on HLA-A*02:01 (human)
# T28 peptide: LLKEGEEPTV
# T29: IMPDH1 peptide on HLA-A*02:01 (human)
# T29 peptide: IIADGGIQTV
# T30: PLD4 peptide on HLA-A*02:01 (human)
# T30 peptide: GLFDGVPTTA
# T31: AK2 peptide on HLA-A*02:01 (human)
# T31 peptide: FLLDGFPRTV
# T32: MYOF peptide on HLA-A*02:01 (human)
# T32 peptide: FFVYDEPGHAV
# T33: XIAP peptide on HLA-A*02:01 (human)
# T33 peptide: FLYTGEGTV
# T34: CDNP2 peptide on HLA-A*02:01 (human)
# T34 peptide: GVYGGSVHEA
# T35: UTRN peptide on HLA-A*02:01 (human)
# T35 peptide: NQWDGTQHGV
# T36: DDAH peptide on HLA-A*02:01 (human)
# T36 peptide: VLFTGREFFV
# T37: ATOH8 peptide on HLA-A*02:01 (human)
# T37 peptide: VLEDGPWKTV
# T38: DYNC1H1 peptide on HLA-A*02:01 (human)
# T38 peptide: FLSDPQVHTV
# T39: FAS peptide on HLA-A*02:01 (human)
# T39 peptide: ALLDGRLQVV
# T40: DPYSL2 peptide on HLA-A*02:01 (human)
# T40 peptide: GLYDGPVCEV
# T41: DPYSL4 peptide on HLA-A*02:01 (human)
# T41 peptide: GLYDGPVHEV
# T42: MAGE-A4 peptide on HLA-A*02:01 (human)
# T42 peptide: GVYDGREHTV
# B1: TCR4 (TCR10) (TCR, V domains shown)
# Valpha: LAKTTQPISMDSYEGQEVNITCSHNNIATNDYITWYQQFPSQGPRFIIQGYKTKVTNEVASLFIPADRKSSTLSLPRVSLSDTAVYYCLVGGDEDMRFGAGTRLTVKP
# Vbeta: EAGVAQSPRYKIIEKRQSVAFWCNPISGHATLYWYQQILGQGPKLLIQFQNNGVVDDSQLPKDRFSAERLKGVDSTLKIQPAKLEDSAVYLCASSLEYGPTYEQYFGPGTRLTVT
# B2: TCR18 (running number 7 of Table 1A) (TCR, V domains shown)
# V domain 1: AQTVTQSQPEMSVQEAETVTLSCTYDTSENNYYLFWYKQPPSRQMILVIRQEAYKQQNATENRFSVNFQKAAKSFSLKISDSQLGDTAMYFCALLDSGNTPLVFGKGTRLSVIA
# V domain 2: NAGVTQTPKFRILKIGQSMTLQCAQDMNHNYMYWYRQDPGMGLKLIYYSVGAGITDKGEVPNGYNVSRSTTEDFPLRLELAAPSQTSVYFCASSYTNNEQFFGPGTRLTVLE
# B3: TCR7 of Tables 1A and 1B (TCR18) (TCR, V domains shown)
# Valpha: B2 V domain 1
# Vbeta: NAGVTQTPKFRILKIGQSMTLQCAQDMNHNYMYWYRQDPGMGLKLIYYSVGAGITDKGEVPNGYNVSRSTTEDFPLRLELAAPSQTSVYFCASSYTNNEQFFGPGTRLTVL
# B4: TCR6 of Tables 1A and 1B (TCR7 of the examples) (TCR, V domains shown)
# Valpha: AQTVTQSQPEMSVQEAETVTLSCTYDTSENNYYLFWYKQPPSRQMILVIRQEAYKQQNATENRFSVNFQKAAKSFSLKISDSQLGDTAMYFCAFVDSGYALNFGKGTSLLVTP
# Vbeta: DVKVTQSSRYLVKRTGEKVFLECVQDMDHENMFWYRQDPGLGLRLIYFSYDVKMKEKGDIPEGYSVSREKKERFSLILESASTNQTSMYLCASSLDGARTQYFGPGTRLTVL
# B5: TCR8 of Tables 1A and 1B (printed TCR18) (TCR, V domains shown)
# Valpha: KQEVTQIPAALSVPEGENLVLNCSFTDSAIYNLQWFRQDPGKGLTSLLLIQSSQREQTSGRLNASLDKSSGRSTLYIAASQPGDSATYLCAVDAHARLMFGDGTQLVVKP
# Vbeta: EPEVTQTPSHQVTQMGQEVILRCVPISNHLYFYWYRQILGQKVEFLVSFYNNEISEKSEIFDDQFSVERPDGSNFTLKIRSTKLEDSAMYFCASISGEQYFGPGTRLTVT
# Columns and labels:
# [1] = target: T1, GPC5 peptide on HLA-A*02:01; experiment: killing
# [2] = target: T2, TRMT1L peptide on HLA-A*02:01; experiment: killing
# [3] = target: T3, PTRF peptide on HLA-A*02:01; experiment: killing
# [4] = target: T4, TSC1 peptide on HLA-A*02:01; experiment: killing
# [5] = target: T5, CNOT1 peptide on HLA-A*02:01; experiment: killing
# [6] = target: T6, HNRNPR peptide on HLA-A*02:01; experiment: killing
# [7] = target: T7, ATAD2 peptide on HLA-A*02:01; experiment: killing
# [8] = target: T8, TP2 peptide on HLA-A*02:01; experiment: killing
# [9] = target: T9, MADD peptide on HLA-A*02:01; experiment: killing
# [10] = target: T10, ANO5 peptide on HLA-A*02:01; experiment: killing
# [11] = target: T11, NSD1 peptide on HLA-A*02:01; experiment: killing
# [12] = target: T12, SYNE3 peptide on HLA-A*02:01; experiment: killing
# [13] = target: T13, GRP78 peptide on HLA-A*02:01; experiment: killing
# [14] = target: T14, HERC4 peptide on HLA-A*02:01; experiment: killing
# [15] = target: T15, AXIN1 peptide on HLA-A*02:01; experiment: killing
# [16] = target: T16, RG1L peptide on HLA-A*02:01; experiment: killing
# [17] = target: T17, HTR5A peptide on HLA-A*02:01; experiment: killing
# [18] = target: T18, MIA3 peptide on HLA-A*02:01; experiment: killing
# [19] = target: T19, KIAA1033 peptide on HLA-A*02:01; experiment: killing
# [20] = target: T20, PSME2 peptide on HLA-A*02:01; experiment: killing
# [21] = target: T21, MAGE-A4 (100% identical in MAGEA8) …; experiment: multimer staining
# … (MAGEA8)/HLA-A*02:01 = … (MAGEA8)/HLA-A*02:01 (human); experiment: cell-based or functional assay
# [22] = target: T22, VPS13B peptide on HLA-A*02:01; experiment: killing
# [23] = target: T23, KEAP1 peptide on HLA-A*02:01; experiment: killing
# [24] = target: T24, COX14 peptide on HLA-A*02:01; experiment: killing
# [25] = target: T25, OSBPL10 peptide on HLA-A*02:01; experiment: killing
# [26] = target: T26, ACTB peptide on HLA-A*02:01; experiment: killing
# [27] = target: T27, STXBP5 peptide on HLA-A*02:01; experiment: killing
# [28] = target: T28, PGRMC1 peptide on HLA-A*02:01; experiment: killing
# [29] = target: T29, IMPDH1 peptide on HLA-A*02:01; experiment: killing
# [30] = target: T30, PLD4 peptide on HLA-A*02:01; experiment: killing
# [31] = target: T31, AK2 peptide on HLA-A*02:01; experiment: killing
# [32] = target: T32, MYOF peptide on HLA-A*02:01; experiment: killing
# [33] = target: T33, XIAP peptide on HLA-A*02:01; experiment: killing
# [34] = target: T34, CDNP2 peptide on HLA-A*02:01; experiment: killing
# [35] = target: T35, UTRN peptide on HLA-A*02:01; experiment: killing
# [36] = target: T36, DDAH peptide on HLA-A*02:01; experiment: killing
# [37] = target: T37, ATOH8 peptide on HLA-A*02:01; experiment: killing
# [38] = target: T38, DYNC1H1 peptide on HLA-A*02:01; experiment: killing
# [39] = target: T39, FAS peptide on HLA-A*02:01; experiment: killing
# [40] = target: T40, DPYSL2 peptide on HLA-A*02:01; experiment: killing
# [41] = target: T41, DPYSL4 peptide on HLA-A*02:01; experiment: killing
# [42] = target: T42, MAGE-A4 peptide on HLA-A*02:01; experiment: multimer staining
binder,measurement,setting,value
B1,binding result,[1],no recognition
same,binding result,[2],no recognition
same,binding result,[3],no recognition
same,binding result,[4],no recognition
same,binding result,[5],no recognition
same,binding result,[6],no recognition
same,binding result,[7],no recognition
same,binding result,[8],no recognition
same,binding result,[9],no recognition
same,binding result,[10],no recognition
same,binding result,[11],no recognition
same,binding result,[12],no recognition
same,binding result,[13],no recognition
same,binding result,[14],no recognition
same,binding result,[15],no recognition
same,binding result,[16],no recognition
same,binding result,[17],no recognition
same,binding result,[18],no recognition
same,binding result,[19],no recognition
same,binding result,[20],no recognition
same,binding result,[21],recognises
B2,"fold difference in EC50 between the MAGEA4 and MAGEA8 peptides, TDCC on peptide-loaded T2 cells",… (MAGEA8)/HLA-A*02:01,> 1000 fold
B3,binding result,[22],no recognition
same,binding result,[23],no recognition
same,binding result,[24],no recognition
same,binding result,[25],no recognition
same,binding result,[26],no recognition
same,binding result,[27],no recognition
same,binding result,[28],no recognition
same,binding result,[29],no recognition
same,binding result,[30],no recognition
same,binding result,[31],no recognition
same,binding result,[32],no recognition
same,binding result,[33],no recognition
same,binding result,[34],no recognition
same,binding result,[35],no recognition
same,binding result,[36],no recognition
same,binding result,[37],no recognition
same,binding result,[38],no recognition
same,binding result,[39],no recognition
same,binding result,[40],no recognition
same,binding result,[41],no recognition
same,binding result,[42],recognises
B4,binding result,[1],no recognition
same,binding result,[2],no recognition
same,binding result,[3],no recognition
same,binding result,[4],no recognition
same,binding result,[5],no recognition
same,binding result,[6],no recognition
same,binding result,[7],no recognition
same,binding result,[8],no recognition
same,binding result,[9],no recognition
same,binding result,[10],no recognition
same,binding result,[11],no recognition
same,binding result,[12],no recognition
same,binding result,[13],no recognition
same,binding result,[14],no recognition
same,binding result,[15],no recognition
same,binding result,[16],no recognition
same,binding result,[17],no recognition
same,binding result,[18],no recognition
same,binding result,[19],no recognition
same,binding result,[20],no recognition
same,binding result,[21],recognises
B5,binding result,[22],no recognition
same,binding result,[23],no recognition
same,binding result,[24],no recognition
same,binding result,[25],no recognition
same,binding result,[26],no recognition
same,binding result,[27],no recognition
same,binding result,[28],no recognition
same,binding result,[29],no recognition
same,binding result,[30],no recognition
same,binding result,[31],no recognition
same,binding result,[32],no recognition
same,binding result,[33],no recognition
same,binding result,[34],no recognition
same,binding result,[35],no recognition
same,binding result,[36],no recognition
same,binding result,[37],no recognition
same,binding result,[38],no recognition
same,binding result,[39],no recognition
same,binding result,[40],no recognition
same,binding result,[41],no recognition
same,binding result,[42],recognises
